In patent US10138283 (AMBRX, dated 2018):
Like-named read-outs stand apart in the source and are kept apart here. [ ]: non-standard residue; d: D form. Phe(4-Ac) = CC(=O)c1ccc(C[C@H](N)C(=O)O)cc1

Experiments:
Assay in all cases: cell-based or functional assay
[1] = biological target: T1, G-CSF receptor on M-NFS60 cells (UniProt P40223 26-837, limits assumed)
T1 sequence (looked up): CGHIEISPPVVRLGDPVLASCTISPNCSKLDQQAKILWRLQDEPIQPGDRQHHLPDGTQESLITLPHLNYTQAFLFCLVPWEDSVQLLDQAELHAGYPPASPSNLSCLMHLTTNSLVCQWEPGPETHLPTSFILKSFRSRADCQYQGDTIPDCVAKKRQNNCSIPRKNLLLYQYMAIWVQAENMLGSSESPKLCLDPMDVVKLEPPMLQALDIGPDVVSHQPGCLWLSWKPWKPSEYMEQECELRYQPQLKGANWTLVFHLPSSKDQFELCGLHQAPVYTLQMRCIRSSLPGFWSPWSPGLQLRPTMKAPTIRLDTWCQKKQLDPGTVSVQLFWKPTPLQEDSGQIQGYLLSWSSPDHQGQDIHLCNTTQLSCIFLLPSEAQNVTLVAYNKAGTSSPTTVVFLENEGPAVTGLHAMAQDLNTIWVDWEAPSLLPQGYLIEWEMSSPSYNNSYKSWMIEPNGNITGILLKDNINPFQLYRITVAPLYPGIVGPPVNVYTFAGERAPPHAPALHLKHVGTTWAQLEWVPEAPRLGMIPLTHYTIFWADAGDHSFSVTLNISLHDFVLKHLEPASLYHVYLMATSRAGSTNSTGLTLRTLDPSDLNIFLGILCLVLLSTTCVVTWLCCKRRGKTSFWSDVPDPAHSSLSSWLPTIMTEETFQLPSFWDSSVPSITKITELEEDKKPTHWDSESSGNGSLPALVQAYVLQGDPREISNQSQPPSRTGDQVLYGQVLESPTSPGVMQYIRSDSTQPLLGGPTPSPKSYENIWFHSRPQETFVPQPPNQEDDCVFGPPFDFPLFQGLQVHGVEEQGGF

[2] = biological target: T1, G-CSF receptor on M-NFS60 cells; remark: listed apart in the source
[3] = biological target: T1, G-CSF receptor on M-NFS60 cells; remark: listed apart in the source
[4] = biological target: T1, G-CSF receptor on M-NFS60 cells; remark: listed apart in the source
[5] = biological target: T1, G-CSF receptor on M-NFS60 cells; remark: listed apart in the source

Molecule: Neulasta (pegfilgrastim) (from UniProt P09919 31-204) (ligand)
- M-NFS60 proliferation assay, Avg EC50 [ng/ml] [1]: 0.077 ng/mL
- M-NFS60 proliferation assay, Fold Diff EC50 [X] [1]: 3.2 fold

Molecule: Neupogen (filgrastim) (from UniProt P09919 31-204) (ligand)
- M-NFS60 proliferation assay, Avg EC50 [ng/ml] [1]: 0.025 ng/mL
- M-NFS60 proliferation assay, Fold Diff EC50 [X] [1]: 1 fold

B1: bG-CSF T133pAF-20K PEG (ligand)
chain: MTPLGPARSLPQSFLLKCLEQVRKIQADGAELQERLCAAHKLCHPEELMLLRHSLGIPQAPLSSCSSQSLQLTSCLNQLHGGLFLYQGLLQALAGISPELAPTLDTLQLDVTDFATNIWLQMEDLGAAPAVQP[Phe(4-Ac)](PEG 20 kDa (hydroxylamine/oxyamino PEG))QGAMPTFTSAFQRRAGGVLVASQLHRFLELAYRGLRYLAEP
- M-NFS60 proliferation assay, Avg EC50 Values (batch NK1) [2]: 0.258 ng/mL
- M-NFS60 proliferation assay, Avg EC50 [ng/ml] (batch NK2) [3]: 0.27 ng/mL
- M-NFS60 proliferation assay, Fold Diff EC50 [X] vs. WT bG-CSF (batch NK2) [4]: 5.1 fold

B2: 20k PEG-bR7 (bG-CSF R7pAF, 20K PEG) (ligand)
chain: MTPLGPA[Phe(4-Ac)](PEG 20 kDa)SLPQSFLLKCLEQVRKIQADGAELQERLCAAHKLCHPEELMLLRHSLGIPQAPLSSCSSQSLQLTSCLNQLHGGLFLYQGLLQALAGISPELAPTLDTLQLDVTDFATNIWLQMEDLGAAPAVQPTQGAMPTFTSAFQRRAGGVLVASQLHRFLELAYRGLRYLAEP
- M-NFS60 proliferation assay, Avg EC50 Values [2]: 0.348 ng/mL

B3: 20k PEG-bR166 (bG-CSF R166pAF, 20K PEG) (ligand)
chain: MTPLGPARSLPQSFLLKCLEQVRKIQADGAELQERLCAAHKLCHPEELMLLRHSLGIPQAPLSSCSSQSLQLTSCLNQLHGGLFLYQGLLQALAGISPELAPTLDTLQLDVTDFATNIWLQMEDLGAAPAVQPTQGAMPTFTSAFQRRAGGVLVASQLHRFLELAY[Phe(4-Ac)](PEG 20 kDa)GLRYLAEP
- M-NFS60 proliferation assay, Avg EC50 Values [2]: 0.363 ng/mL

B4: wild-type bovine G-CSF (ligand)
chain: MTPLGPARSLPQSFLLKCLEQVRKIQADGAELQERLCAAHKLCHPEELMLLRHSLGIPQAPLSSCSSQSLQLTSCLNQLHGGLFLYQGLLQALAGISPELAPTLDTLQLDVTDFATNIWLQMEDLGAAPAVQPTQGAMPTFTSAFQRRAGGVLVASQLHRFLELAYRGLRYLAEP
- M-NFS60 proliferation assay, Avg EC50 [ng/ml] [3]: 0.053 ng/mL
- M-NFS60 proliferation assay, Fold Diff EC50 [X] [4]: 1 fold

B5: 20k PEG-bL3 (bG-CSF L3pAF, 20K PEG) (ligand)
chain: TP[Phe(4-Ac)](PEG 20 kDa)GPARSLPQSFLLKCLEQVRKIQADGAELQERLCAAHKLCHPEELMLLRHSLGIPQAPLSSCSSQSLQLTSCLNQLHGGLFLYQGLLQALAGISPELAPTLDTLQLDVTDFATNIWLQMEDLGAAPAVQPTQGAMPTFTSAFQRRAGGVLVASQLHRFLELAYRGLRYLAEP
modifications: not fully specified (N-terminus)
- M-NFS60 proliferation assay, Avg EC50 Values [5]: 0.477 ng/mL

B6: 20k PEG-bS62 (bG-CSF S62pAF, 20K PEG) (ligand)
chain: MTPLGPARSLPQSFLLKCLEQVRKIQADGAELQERLCAAHKLCHPEELMLLRHSLGIPQAPL[Phe(4-Ac)](PEG 20 kDa)SCSSQSLQLTSCLNQLHGGLFLYQGLLQALAGISPELAPTLDTLQLDVTDFATNIWLQMEDLGAAPAVQPTQGAMPTFTSAFQRRAGGVLVASQLHRFLELAYRGLRYLAEP
- M-NFS60 proliferation assay, Avg EC50 Values [2]: 0.15 ng/mL
